Reference: the supplement of paper PMC10724198
± gives the standard deviation of the averaged measurements.

Test system: Saccharomyces cerevisiae
Experiment: protein stability index of tFT-peptide fusion (C-terminal peptide) (PSI (0-1 scale)); higher = more stable (slower turnover)
Details: genetic background: wild type; temperature: 30 C
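Also: PSI is a weighted mean of sequencing reads over stability bins, variants kept only with over 10 reads, mCherry proximal and sfGFP distal, peptide attached via GGGS linker.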

Sequence	protein stability index
RVCSGYSRLRFA	0.561 ± 0.085
RVDTRKQNKNSM	0.693 ± 0.019
RVEITGVAVTRC	0.642 ± 0.0082
RVFVRFGSCAGG	0.679 ± 0.059
RVGGRVSGGGGL	0.654 ± 0.027
RVPNSYELRCFR	0.544 ± 0.038
RVPPPTSPPSPP	0.694 ± 0.012
RVSEPRRPPLGR	0.65 ± 0.024
RVSGILQHFTSA	0.7309 ± 0.0058
RVSWGRTGTLRN	0.681 ± 0.018
RVTMLPSSQRGI	0.651 ± 0.033
RVTPGLSIFFWP	0.729 ± 0.0094
RVVCFPAPLMPR	0.705 ± 0.05
RVVDEPRDFQVR	0.6888 ± 0.0043
RVVPSVSVWLPP	0.663 ± 0.052
RWKLRLFLLVPT	0.602 ± 0.044
RWLGWRAGGAAG	0.662 ± 0.071
RWPSVGFTAHNV	0.571
RWSPLLPPQVSL	0.683 ± 0.019
RYASSRTLFAAV	0.672 ± 0.069
RYGLSLLQASRR	0.679 ± 0.081
RYLQAGDYTKVY	0.695 ± 0.1
RYPSAPPKISAS	0.613 ± 0.0083
RYQMVTGPPQRH	0.6921 ± 0.004
RYVVTVQGSGGE	0.688 ± 0.045
SAAVDSPIFPSS	0.6916 ± 0.00075

Sequence	protein stability index
SAELGHTNLCRS	0.6781 ± 0.0041
SAFSSSLTALPP	0.653 ± 0.022
SAGGARSLQMFC	0.66 ± 0.027
SAGHHACRRYAG	0.683 ± 0.037
SAGVTGREVFVG	0.631 ± 0.015
SALNKPLTTESG	0.6586 ± 0.0021
SAPQPPFPFPPS	0.696 ± 0.0093
SAPRFPARFYPL	0.66705 ± 0.0003
SAPRRPPLIFPG	0.672 ± 0.11
SARPDLAERHRP	0.673 ± 0.013
SASAILPWAIKL	0.639 ± 0.075
SASLPSPPFPSP	0.649 ± 0.054
SASSLPVVAARA	0.544 ± 0.021
SASVLVLRRSSP	0.732 ± 0.074
SCARARFAPHHS	0.734 ± 0.0092
SCCSLCKAVRNL	0.718 ± 0.054
SCFVAWAFCGWY	0.554 ± 0.0084
SCFVWAFRCWGF	0.621 ± 0.043
SCGWWWGGGAGG	0.656 ± 0.041
SCHEARWEVVMW	0.771 ± 0.17
SCHGGWFLHVFT	0.645 ± 0.018
SCKARPLVAASD	0.66 ± 0.044
SCLPPSRPSSAL	0.629 ± 0.019
SCLSGALPPFLA	0.668 ± 0.042
SCLSLALYASHF	0.56 ± 0.033
SCLYPGLCLSYF	0.674 ± 0.0069

Sequence	protein stability index
SCMSVRKSSPRS	0.691 ± 0.044
SCPAPAALPLPR	0.674 ± 0.026
SCPPVLFFPFPW	0.705 ± 0.051
SCRLALPPSFLS	0.706 ± 0.024
SCYGPRAPFHSP	0.581 ± 0.074
SCYHGDYCTVAW	0.7062 ± 0.0017
SDEIKTLGLRKK	0.683 ± 0.025
SDPLRLPNTCQH	0.669 ± 0.009
SDSAPPPAALPH	0.7263 ± 0.0029
SDSSRRVFDVRR	0.705 ± 0.046
SDTHYLAGELCT	0.596 ± 0.034
SDVAWVEAPPRS	0.678 ± 0.097
SECLCVRDRCGG	0.685 ± 0.078
SELVARGGGGGW	0.728 ± 0.07
SESVGLCLGVTW	0.767 ± 0.05
SEVFAVGITGVI	0.6788 ± 0.0039
SFAPPLRCPPSS	0.709 ± 0.02
SFDPCLCTLSLL	0.6961 ± 0.0049
SFDPPYALLPPP	0.685 ± 0.02
SFIFTLRRSRPR	0.667 ± 0.012
SFLGYAVFPYKG	0.6808 ± 0.0041
SFLVPLTAHISP	0.673 ± 0.083
SFPLPSLSSPSS	0.61 ± 0.075
SFPPFSPLYSPP	0.717 ± 0.067
SFPPPLPPPLHP	0.721 ± 0.06
SFQCTCLSPCTG	0.652 ± 0.07

Sequence	protein stability index
SFRPPSTPRRRT	0.695 ± 0.03
SFRYVGLTRVFG	0.592 ± 0.032
SFSCYFPLGFFG	0.7416 ± 0.001
SFSLSMFVTYSF	0.505 ± 0.03
SFSLVATESPVT	0.709 ± 0.052
SFSRLYGCVPRD	0.678 ± 0.0098
SFSSAVIPPFAP	0.728 ± 0.053
SFTLPPPLLSRT	0.747 ± 0.008
SFVDDILVRPIA	0.715 ± 0.05
SFVGGKLRTEYS	0.71 ± 0.068
SFVSDYIILIVL	0.497 ± 0.081
SFWNLFAGWYVI	0.685 ± 0.03
SGAGVGGQVAVG	0.717 ± 0.061
SGDVGVGHWVGG	0.692 ± 0.022
SGEKKPTKGTRT	0.57 ± 0.055
SGEVSYVYVGNK	0.6553 ± 0.0011
SGFLLSPPRPSF	0.693 ± 0.042
SGGAEGVRAGAA	0.715 ± 0.081
SGGQDSFVLRLG	0.6687 ± 0.0015
SGGRGAILVSVV	0.647 ± 0.078
SGGVKGKKKGEK	0.702 ± 0.043
SGHGFFMCLFRC	0.552 ± 0.028
SGIEAGAELGVG	0.567 ± 0.011
SGIEHVLIVYDT	0.679 ± 0.11
SGIRGWNLGEMW	0.7152 ± 0.0068
SGKIDKGAIAIS	0.663 ± 0.049

Sequence	protein stability index
SGLPLLSSYATR	0.72 ± 0.048
SGLQPADMVFFR	0.749 ± 0.056
SGPSIPCFLYSS	0.698 ± 0.013
SGSFQGNVRVPC	0.676 ± 0.017
SGSRFRTVRAPE	0.654 ± 0.032
SGSRRTSRVGSR	0.721 ± 0.0087
SGSRWYYSLGRG	0.709 ± 0.043
SGSSLCSVGWLV	0.718 ± 0.044
SGSWRFYPSTTC	0.706 ± 0.056
SGTRDELVFVAV	0.6755 ± 0.0061
SGVEGTRQGSVS	0.711 ± 0.068
SGVLKHLRKESS	0.641 ± 0.018
SGVRSPALLGRC	0.68 ± 0.042
SHGELLLGPVFL	0.748 ± 0.009
SHGQAPFNVLVA	0.596 ± 0.025
SHHKAFFDLVFM	0.7578 ± 0.0051
SHLFPCRSSFPP	0.656 ± 0.037
SHLGPYPAPARP	0.7185 ± 0.006
SHLKEHREEELE	0.647 ± 0.0097
SHLSTLSHPPPP	0.637 ± 0.043
SHRLPPPPPPPS	0.758 ± 0.14
SHSHMRRLKMYR	0.717 ± 0.089
SHTAWEQRVPKQ	0.729 ± 0.02
SHVPLAKLSLFP	0.756 ± 0.024
SIDGFAFCVGGV	0.737 ± 0.058
SIKKFRTRKRRR	0.67 ± 0.12

Sequence	protein stability index
SIRHPYEFFARS	0.738 ± 0.031
SIRLGGSVVELV	0.694 ± 0.041
SISIGVRHSRPP	0.609 ± 0.033
SISLSLSQSDRR	0.614 ± 0.016
SKEKKRPDNKTF	0.71 ± 0.048
SKKKRQNQLIKM	0.7527 ± 0.0032
SKKKTKKRRKKN	0.698 ± 0.023
SKNEFKKIMKKY	0.711 ± 0.083
SKSNIAGIRKEL	0.6774 ± 0.0063
SKSRGVIVTVMV	0.5681 ± 0.00072
SLAPPVILPSHP	0.659 ± 0.041
SLATFRTLLPES	0.667 ± 0.019
SLAVAPHIATQQ	0.701 ± 0.011
SLAVDVRVSWEI	0.704 ± 0.017
SLCPRVCSERVP	0.722 ± 0.031
SLCWDVLFLPVV	0.736 ± 0.064
SLELWPGAKGAP	0.702 ± 0.1
SLFFFNFPLCAL	0.559 ± 0.019
SLFGMACDGGLP	0.6873 ± 0.0043
SLFLFCLRCLQF	0.576 ± 0.037
SLFPSEPRPPSL	0.719 ± 0.03
SLGAPPAVVSSY	0.6822 ± 0.0033
SLHSPPHPPPHA	0.673 ± 0.011
SLLHSIPSSPPF	0.729 ± 0.041
SLLLPLFLPPSL	0.723 ± 0.0086
SLLLPPPPPSPH	0.731 ± 0.042

Sequence	protein stability index
SLLPAPTPCPPP	0.701 ± 0.033
SLLPGGHRWAGI	0.659 ± 0.025
SLLRSPSLPQSN	0.634 ± 0.095
SLLSSPFPCLRQ	0.766 ± 0.087
SLLYIQDFVSGV	0.683 ± 0.019
SLMLDGRSTKAA	0.6912 ± 0.0035
SLMRRFRGQWRV	0.71 ± 0.06
SLPCLFPPPLLP	0.726 ± 0.045
SLPPDPPSSYSP	0.632 ± 0.044
SLPPPAAPLPFP	0.7346 ± 0.00096
SLPPPPSQLRPL	0.726 ± 0.015
SLPPPSPSPSLS	0.649 ± 0.034
SLPPTLPPRSCP	0.6211 ± 0.0019
SLPQAPLRPAPS	0.656 ± 0.046
SLPRSHRRGPVP	0.663 ± 0.014
SLPSWPPAPLPG	0.703 ± 0.025
SLPVLSSRTSIQ	0.687 ± 0.012
SLPVSSPIRILF	0.6326 ± 0.0015
SLQAYASALIHV	0.687 ± 0.0098
SLRKVTEKDKRT	0.677 ± 0.064
SLRRLSPLPLAS	0.7 ± 0.04
SLSEEWAHIGGL	0.643 ± 0.0072
SLSERPKFSIYV	0.656 ± 0.049
SLSGSPIPFIRL	0.764 ± 0.072
SLSIAPAPLDFP	0.655 ± 0.084
SLSLFPPRRLLP	0.734 ± 0.088

Sequence	protein stability index
SLSSTVPRFCEV	0.6241 ± 0.0028
SLSVPTTLFLFS	0.7 ± 0.017
SLTLVCRKYILL	0.633 ± 0.024
SLVAALHRPTFV	0.679 ± 0.034
SLVCCGPVWVFL	0.573 ± 0.022
SLVLLSACRFGF	0.654 ± 0.073
SLVPFSPPRSPP	0.689 ± 0.083
SLVVFGFGGYLL	0.686 ± 0.021
SLWPLFVDVVCL	0.498 ± 0.042
SMCAFRPFPFSS	0.70891 ± 0.00011
SMCSVAGVWWLG	0.728 ± 0.062
SMDISYLISFQR	0.7426 ± 0.0049
SMYHSCTFRTTV	0.586 ± 0.021
SMYLPSSSDVLS	0.736 ± 0.014
SNGTRGSKLPAI	0.685 ± 0.055
SNIGFLLCSLFL	0.59078 ± 4.5e-05
SNLYNSENVPVD	0.709 ± 0.041
SPAARPLFRTIS	0.61 ± 0.054
SPAPPSQFPSFA	0.818 ± 0.11
SPCPLTVAPIIP	0.644 ± 0.056
